Measured values taken from patent US20040146507A1.

Experiments:
human CD18 (human) = human CD18 (human) (UniProt P05107); assay: cell-based or functional assay
rhesus CD18 (rhesus) [1] = target: rhesus CD18 (rhesus) (UniProt H9Z8N5); assay: cell-based or functional assay
rhesus CD18 (rhesus) [2] = target: rhesus CD18 (rhesus) (UniProt H9Z8N5); assay: saturation binding, rhesus leukocytes, donor 1; Kd(app)
rhesus CD18 (rhesus) [3] = target: rhesus CD18 (rhesus) (UniProt H9Z8N5); assay: saturation binding, rhesus leukocytes, donor 2; Kd(app)

Sequence of human CD18 (human) (P05107 23-769): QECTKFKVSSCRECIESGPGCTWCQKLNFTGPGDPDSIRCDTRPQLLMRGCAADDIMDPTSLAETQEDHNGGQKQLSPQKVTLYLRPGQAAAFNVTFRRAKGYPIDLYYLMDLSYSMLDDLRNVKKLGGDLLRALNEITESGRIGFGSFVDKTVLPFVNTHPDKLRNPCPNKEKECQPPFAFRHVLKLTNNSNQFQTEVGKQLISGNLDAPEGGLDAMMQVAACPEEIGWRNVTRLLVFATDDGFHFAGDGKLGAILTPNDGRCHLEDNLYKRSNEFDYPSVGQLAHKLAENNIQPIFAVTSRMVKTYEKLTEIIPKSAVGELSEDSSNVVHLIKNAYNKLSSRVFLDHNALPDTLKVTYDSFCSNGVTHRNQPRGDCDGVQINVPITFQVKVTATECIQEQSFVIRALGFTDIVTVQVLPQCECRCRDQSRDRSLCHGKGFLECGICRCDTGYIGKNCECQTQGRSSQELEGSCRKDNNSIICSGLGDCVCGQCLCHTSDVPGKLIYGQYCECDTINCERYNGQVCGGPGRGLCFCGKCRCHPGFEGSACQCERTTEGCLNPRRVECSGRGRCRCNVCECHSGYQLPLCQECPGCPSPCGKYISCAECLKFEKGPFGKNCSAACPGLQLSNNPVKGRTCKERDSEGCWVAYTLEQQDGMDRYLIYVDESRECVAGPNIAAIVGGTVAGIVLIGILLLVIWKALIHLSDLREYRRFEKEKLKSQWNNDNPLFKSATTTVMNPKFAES

murine anti-human CD18 antibody MHM23
IC50, blocking of cell adhesion, Rh/HuCD11a: HuK (human CD18 (human)): 1.4 nM
IC50, blocking of cell adhesion, RhLy: HuICAM (rhesus CD18 (rhesus) [1]): 1.2 nM
IC50, blocking of cell adhesion, RhLy: HuK (rhesus CD18 (rhesus) [1]): 1.6 nM
Kd (rhesus CD18 (rhesus) [2]): 3.9 nM
Kd (rhesus CD18 (rhesus) [3]): 4.5 nM
